Biological target: human CD73 expressed on cells (cancer cell line NCI-H1373 endogenously expressing human CD73; human T cell expressing human CD73) (human) (UniProt P21589)
Test: cell-based or functional assay

Sequence of human CD73 expressed on cells (cancer cell line NCI-H1373 endogenously expressing human CD73; human T cell expressing human CD73) (human) (P21589 27-549): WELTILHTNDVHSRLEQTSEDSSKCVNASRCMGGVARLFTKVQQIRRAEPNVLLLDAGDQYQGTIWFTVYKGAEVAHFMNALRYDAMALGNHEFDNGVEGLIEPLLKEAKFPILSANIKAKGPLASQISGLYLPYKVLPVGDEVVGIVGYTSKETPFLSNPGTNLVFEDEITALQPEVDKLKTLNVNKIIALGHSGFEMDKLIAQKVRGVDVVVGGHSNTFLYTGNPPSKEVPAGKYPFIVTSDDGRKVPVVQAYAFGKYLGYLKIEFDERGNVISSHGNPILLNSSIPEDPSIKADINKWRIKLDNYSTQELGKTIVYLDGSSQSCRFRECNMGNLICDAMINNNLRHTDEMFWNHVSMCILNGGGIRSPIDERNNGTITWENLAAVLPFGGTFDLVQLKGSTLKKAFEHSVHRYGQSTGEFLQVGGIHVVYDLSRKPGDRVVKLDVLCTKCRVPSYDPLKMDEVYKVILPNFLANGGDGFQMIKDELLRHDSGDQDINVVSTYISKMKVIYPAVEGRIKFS

EC50 (ng/mL), IFNγ; recovery of AMP-dependently suppressed human T cell functions: 132 ng/mL | EC50 (ng/mL), Proliferation of T cells; recovery of AMP-dependently suppressed human T cell functions: 357 ng/mL
B1: 6E1 (antibody, from another filing, V domains shown)
VH: EFQLQQSGPELVKPGASVKVSCKASGYAFTSYNMYWVKQSHGKRLEWIGYIDPYNGGSSYNQKFKGKATLTVDKSSSTAYMHLNNLTSEDSAVYYCARGYNNYKAWFAYWGQGTLVTVSA
VL: SIVMTQTPKFLLVSAGDRVTITCKASQSVTNDVAWYQQKPGQSPKLLIYYASNRYTGVPDRFTGSGYGTDFTFTISTMQAEDLAVYFCQQDYSSLTFGAGTKLELK

Reference: patent US20200071404A1
